Five molecules from patent publication US20180346564A1 (TEIJIN PHARMA, published 2018) can be followed below.

For assay [1], the target named is T1, Peptide No. 3, pS202, H-SSPG(pS)PGTPC-OH (human, SMILES C[C@@H](O)[C@H](NC(=O)CNC(=O)[C@@H]1CCCN1C(=O)[C@H](COP(=O)(O)O)NC(=O)CNC(=O)[C@@H]1CCCN1C(=O)[C@H](CO)NC(=O)[C@@H](N)CO)C(=O)N1CCC[C@H]1C(=O)N[C@@H](CS)C(=O)O).
T1 peptide: H-SSPG[pS]PGTPC-OH
Nature of the assay: ELISA, coated peptide. The procedure, abridged:
(§1)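 Antibody binding was taken as the absorbance signal. Plates coated with peptides or their bovine serum albumin or keyhole limpet hemocyanin conjugates (1 μg/mL in cold PBS, 50 μL/well, overnight at 4 °C) and blocked with 3% BSA-PBS overnight at 4 °C were incubated with purified antibody at 150 ng/mL for 90 minutes at room temperature. Detection used alkaline phosphatase-labelled goat anti-human IgG (H+L) at 2000-fold dilution for 60 minutes, with pNPP developed for 40 minutes and read at 405 nm (reference 550 nm).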

Assay [2] deals with T2, Peptide No. 7, pS396/pS400/pS404, H-GC-RENAKAKTDHGAEIVYK(pS)PVV(pS)GDT(pS)PRHL-OH (human, phosphoserine (pS) at peptide positions 20, 24 and 28 (tau Ser396, Ser400, Ser404)).
T2 peptide: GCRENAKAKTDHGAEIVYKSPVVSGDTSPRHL
Nature of the assay: ELISA, coated peptide. The procedure, abridged: as §1

The target of assay [3] is T3, Peptide No. 6, pT231, H-KVAVVR(pT)PPKSPS-OH (human).
T3 peptide: H-KVAVVR[pT]PPKSPS-OH
Description: ELISA, coated peptide. The procedure, abridged: as §1

Assay [4] has as its target T4, Peptide No. 1, pS46, H-GLKE(pS)PLQT-OH (human, SMILES CC(C)C[C@H](NC(=O)CN)C(=O)N[C@@H](CCCCN)C(=O)N[C@@H](CCC(=O)O)C(=O)N[C@@H](COP(=O)(O)O)C(=O)N1CCC[C@H]1C(=O)N[C@@H](CC(C)C)C(=O)N[C@@H](CCC(N)=O)C(=O)N[C@H](C(=O)O)[C@@H](C)O).
T4 peptide: H-GLKE[pS]PLQT-OH
Nature of the assay: ELISA, coated peptide. The gist of the method:
as §1

Assay [5] concerns the target T5, Peptide No. 5, pT217, H-GC-GSRSRTPSLP(pT)PPTREPKKVAVV-OH (human, phosphothreonine (pT) at peptide position 13 (tau Thr217)).
T5 peptide: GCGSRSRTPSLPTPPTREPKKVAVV
Description: ELISA, coated peptide. The gist of the method:
as §1

The target in assay [6] is T6, Peptide No. 2, pS199, H-SGYS(pS)PGSPGC-OH (human, SMILES N[C@@H](CO)C(=O)NCC(=O)N[C@@H](Cc1ccc(O)cc1)C(=O)N[C@@H](CO)C(=O)N[C@@H](COP(=O)(O)O)C(=O)N1CCC[C@H]1C(=O)NCC(=O)N[C@@H](CO)C(=O)N1CCC[C@H]1C(=O)NCC(=O)N[C@@H](CS)C(=O)O).
T6 peptide: H-SGYS[pS]PGSPGC-OH
Nature of the assay: ELISA, coated peptide. The procedure, abridged: as §1

The target of assay [7] is T7, Peptide No. 8, pS412, H-NV(pS)STGSC-OH (human, SMILES CC(C)[C@H](NC(=O)[C@@H](N)CC(N)=O)C(=O)N[C@@H](COP(=O)(O)O)C(=O)N[C@@H](CO)C(=O)N[C@H](C(=O)NCC(=O)N[C@@H](CO)C(=O)N[C@@H](CS)C(=O)O)[C@@H](C)O).
T7 peptide: H-NV[pS]STGSC-OH
Nature of the assay: ELISA, coated peptide. The gist of the method: as §1

Assay [8] addresses T8, Peptide No. 4, pT212/pS214, H-GCGSPGTPGSRSR(pT)P(pS)LPTPPTREPK-OH (human, phosphothreonine (pT) at peptide position 14 (tau Thr212); phosphoserine (pS) at peptide position 16 (tau Ser214)).
T8 peptide: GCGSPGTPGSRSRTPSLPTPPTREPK
Description: ELISA, coated peptide. The procedure, abridged:
as §1

Assay [9] has as its target T9, His-tagged non-phosphorylated tau protein 4R0N (human, UniProt P10636 2-758).
T9 construct: Produced by Escherichia coli; negative control in SPR; also called ATGen Cat. No. ATGP0795
Nature of the assay: SPR Biacore T200, antigen immobilized. The procedure: The binding affinities of the hyperphosphorylated tau protein 4R2N (hpTau), non-phosphorylated tau protein 4R0N, monophosphorylated tau peptide 1×P, triphosphorylated tau peptide 3×P, and non-phosphorylated tau peptide Non P with each antibody were measured with an SPR system Biacore T200 (GE Healthcare Japan), in accordance with the instruction manual for evaluation attached to the system.
The His-tagged hpTau or Tau proteins were each immobilized on a sensor chip using an HBS-N buffer (code No. BR-1003-69) as the immobilization reaction solution and allowing a nickel chloride solution to react with the NTA sensor chip for bonding Ni to NTA. Subsequently, the sensor chip was activated with a mixed solution of N-ethyl-N′-(3-dimethylaminopropyl)-carbodiimide hydrochloride (1-ethyl-3-(3-dimethylaminopropyl)carbodiimide hydrochloride: EDC) and N-hydroxysuccinimide (NHS). A solution of each of the His-tagged proteins, adjusted to a concentration of 100 to 500 ng/mL with a 4-(2-hydroxyethyl)-1-piperazineethanesulfonic acid (HEPES) buffer (0.01 M HEPES, 150 mM KCl, 2 mM DTT, 1 mM EDTA, pH 7.2), was applied to the sensor chip, whereby the protein was immobilized on the sensor chip through covalent bonds with the Ni-NTA. The remaining active NHS was blocked with ethanolamine, and Ni ions were removed with an EDTA solution (Ni-affinity amine coupling: see International Publication No. WO2005/022156). The antigen peptides (1×P, 3×P, and Non P) were each immobilized on a sensor chip by activating the NTA sensor chip with a mixed solution of N-ethyl-N′-(3-dimethylaminopropyl)-carbodiimide (EDC) hydrochloride and N-hydroxysuccinimide (NHS), and then applying a solution of the antigen peptide diluted with a 10 mM sodium acetate buffer (pH: 4 to 4.5) to 1 to 10 μM to the sensor chip, whereby the peptide was covalently bound to the sensor chip. The remaining active NHS was blocked with ethanolamine. Thus, sensor chips immobilized respectively with the proteins and peptides mentioned above were produced.
A CAPS buffer (pH 10.5) was applied to these sensor chips at 37° C. to stabilize the protein- or peptide-immobilized surfaces of the sensor chips.

Where a chain is given by its changes, count along the chain named. [ ]: non-standard residue; d: D form. pT = C[C@@H](OP(=O)(O)O)[C@H](N)C(=O)O; pS = N[C@@H](COP(=O)(O)O)C(=O)O

T9 sequence (P10636 other isoform, or with tags, fused parts or gaps limits assumed): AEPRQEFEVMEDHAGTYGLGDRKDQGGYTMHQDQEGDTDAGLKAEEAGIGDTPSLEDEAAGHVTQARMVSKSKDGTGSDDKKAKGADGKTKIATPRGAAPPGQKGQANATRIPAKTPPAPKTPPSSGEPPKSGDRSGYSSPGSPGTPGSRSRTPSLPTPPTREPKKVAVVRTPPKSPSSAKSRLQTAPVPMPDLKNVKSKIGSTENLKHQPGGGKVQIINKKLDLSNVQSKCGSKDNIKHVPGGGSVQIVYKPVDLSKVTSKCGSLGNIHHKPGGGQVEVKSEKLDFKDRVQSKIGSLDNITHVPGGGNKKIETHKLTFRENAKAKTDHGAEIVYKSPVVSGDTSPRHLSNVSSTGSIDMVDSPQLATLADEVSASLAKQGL

B1: chimeric antibody Ta1505 (antibody, human IgG1, kappa, V domains shown)
VH: EVQLVESGGGLVQPKGSLKLSCAASGFAFNSFALNWVRQAPGKSLEWVVHIRSKTNNYATFYADSVKDRFTVSRDDSQSMVYLQMNNLKTEDTGIYYCVRRGPRDSWFGYWGQGTLVTVSA
VL: DILMTQTPLSLPVSLGDQASISCRSSQNIVHSNGNTYLEWYLQKPGQSPKVLIYTVSNRFSGVPDRFSGSGSGTDFTLKISRVEAEDLGVYYCFQGSHLPLTFGGGTKLELKR
notes: Mouse Ta1505 variable regions with human IgG1(kappa) constant regions. chim; also called the chimeric antibody; Chimera
In the case of B1, the binding result in assay [1], in assay [2], in assay [3], in assay [4], in [5] and in [6] was “no binding (tested: OD value <0.5; antibody 150 ng/mL)” each time. Besides, the binding result in assay [7] is on record as “no binding (tested: OD value <0.5; antibody 150 ng/mL)”; in assay [8], “no binding (tested: OD value <0.5; antibody 150 ng/mL)”; in assay [9] it was “no binding (tested: 0.2 to 1 nM)”.

B2: humanized antibody L48H11 (antibody, human IgG1, kappa, V domains shown)
VH: EVQLVESGGGLVQPGGSLRLSCAASGFTFSSFALNWVRQAPGKGLEWVGHIRSKTNNYATFYAASVKDRFTVSRDDSQNTAYLQMNSLKTEDTATYYCVRRGPRDSWFGYWGQGTLVTVSS
VL: B1 VL with L3V, T7S, S14T, Q18P, L42Q, K50Q, V51L, L109V, L111I
notes: VL48/VH11, human IgG1/kappa
As for B2, the binding result in assay [1], in assay [2], in assay [3], in assay [4], in assay [5] and in assay [6] was “no binding (tested: OD value <0.5; antibody 150 ng/mL)” throughout. Also, the binding result is on record as “no binding (tested: OD value <0.5; antibody 150 ng/mL)” in [7], “no binding (tested: OD value <0.5; antibody 150 ng/mL)” in assay [8] and “no binding (tested: 0.2 to 1 nM)” in assay [9].

B3: humanized antibody L36H11 (antibody, human IgG1, kappa, V domains shown)
VH: B2 VH
VL: B1 VL with L3V, T7S, S14T, Q18P, N28S, L42Q, K50Q, V51L, L109V, L111I
notes: VL36/VH11, human IgG1/kappa
B3: the binding result in assay [1], in assay [2], in [3], in assay [4], in [5] and in assay [6] was “no binding (tested: OD value <0.5; antibody 150 ng/mL)” in each case. Moreover, the binding result in [7] is reported as “no binding (tested: OD value <0.5; antibody 150 ng/mL)”; in [8], “no binding (tested: OD value <0.5; antibody 150 ng/mL)”; in assay [9], “no binding (tested: 0.2 to 1 nM)”.

B4: humanized antibody L47H64 (antibody, human IgG1, kappa, V domains shown)
VH: B2 VH with S30N, G49V
VL: B1 VL with L3V, T7S, S14T, Q18P, N28S, L42Q, K50Q, V51R, L109V, L111I
notes: VL47/VH64, human IgG1/kappa
As to B4, the binding result in assay [1], in [2], in assay [3], in assay [4], in assay [5] and in assay [6] was “no binding (tested: OD value <0.5; antibody 150 ng/mL)” throughout. Moreover, the binding result in [7] and in assay [8] was “no binding (tested: OD value <0.5; antibody 150 ng/mL)” throughout.

B5: humanized antibody L15H11 (antibody, human IgG1, kappa, V domains shown)
VH: B2 VH
VL: DIVMTQSPLSLPVTLGEPASISCRSSQSIVHSNGNTYLEWYQQKPGQSPRLLIYTVSNRFSGVPDRFSGSGSGTDFTLKISRVEAEDLGVYYCFQGSHLPLTFGGGTKVEIKR
notes: VL15/VH11, human IgG1/kappa
Regarding B5, the binding result in assay [1], in [2], in [3], in assay [4], in assay [5] and in assay [6] was “no binding (tested: OD value <0.5; antibody 150 ng/mL)” throughout. Further, the binding result in [7] was “no binding (tested: OD value <0.5; antibody 150 ng/mL)”; in assay [8], “no binding (tested: OD value <0.5; antibody 150 ng/mL)”; in [9], “no binding (tested: 0.2 to 1 nM)”.
